Reference: the supplement of paper PMC10724198
Several values for one entry are separate records, joined by “and”; a condition that tells them apart may be missing. Equal entries are not always repeated. ± gives the standard deviation of the averaged measurements.

How the values were obtained:
Saccharomyces cerevisiae [1] = assay: protein stability index of tFT-peptide fusion in wild type (PSI (0-1 scale)); higher = more stable (slower turnover); conditions: genetic background: wild type
Saccharomyces cerevisiae [2] = assay: protein stability index of tFT-peptide fusion in deletion strain of DOA10 (PSI (0-1 scale)); higher = more stable (slower turnover)
Experimental: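 MPS profiling in S. cerevisiae of two library types built from selected 12-aa C-degron peptides (IN1, IN2, LN1, LN3, VN2, R1-R5, W1-W3, Atg1 and Rpa12 C-termini): saturation mutagenesis libraries and C-terminal +1 capping libraries (13 aa). Each peptide is fused to the C-terminus of a sfGFP-mCherry timer, after a GGGS linker. Cells are FACS-sorted into 8 mCherry/sfGFP bins and sequenced. PSI runs from 0 (unstable) to 1 (stable), measured once in wild type and in the das1Δ or doa10Δ background.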

Saccharomyces cerevisiae [3] = assay: protein stability index of tFT-peptide fusion in deletion strain of DAS1 (PSI (0-1 scale)); higher = more stable (slower turnover)
Saccharomyces cerevisiae [4] = assay: protein stability index of tFT-peptide fusion (C-terminal peptide) (PSI (0-1 scale)); higher = more stable (slower turnover)
Experimental: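 MPS profiling in S. cerevisiae of the tFT-X12 degron library: putative degron peptides plus stable controls, 12 aa, fused to the C-terminus of a sfGFP-mCherry timer. Cells are FACS-sorted into 8 mCherry/sfGFP bins and deep-sequenced. PSI runs from 0 (unstable) to 1 (stable). Backgrounds are wild type, das1Δ and doa10Δ at 30 °C, and wild type, das1Δ, cdc34-1 and cdc53-1 at 37 °C; 2-3 technical replicates each.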

Saccharomyces cerevisiae [5] = assay: as above; conditions: genetic background: wild type; temperature: 30 C
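Throughout, for protein stability index of tFT-peptide fusion (C-terminal peptide): PSI is a weighted mean of sequencing reads over stability bins, variants kept only with over 10 reads, mCherry proximal and sfGFP distal, peptide attached via GGGS linker.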
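Throughout, for protein stability index of tFT-peptide fusion in deletion strain of DAS1: PSI is a weighted mean of each variant's read distribution over the sorted stability bins, computed only for variants having over 10 reads in total.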
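Throughout, for protein stability index of tFT-peptide fusion in deletion strain of DOA10: PSI per variant is the weighted mean of its sequencing read distribution over the sorted stability bins, counting only variants with over 10 reads summed across bins.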
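Throughout, for protein stability index of tFT-peptide fusion in wild type: PSI derived as read-weighted mean over the 8 sorting bins, only variants exceeding 10 total reads kept, mCherry placed adjacent to the peptide and sfGFP distal.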

Row | Sequence | protein stability index (Saccharomyces cerevisiae [1]) | protein stability index (Saccharomyces cerevisiae [2]) | protein stability index (Saccharomyces cerevisiae [3]) | other results
1 | AGTLPMCPLLLR | 0.461 | 0.671 |  | 
2 | AIGLPMCPLLLR | 0.297 | 0.653 |  | 
3 | AITLPDCPLLLR | 0.437 | 0.711 |  | 
4 | AITLPHCPLLLR | 0.264 | 0.713 |  | 
5 | AITLPICPLLLR | 0.194 | 0.667 |  | 
6 | AITLPMAPLLLR | 0.253 | 0.666 |  | 
7 | AITLPMCPILLR | 0.216 | 0.619 |  | 
8 | AITLPMCPLCLR | 0.556 | 0.702 |  | 
9 | AITLPMCPLLLP | 0.627 | 0.675 |  | 
10 | AITLPMCPLLLRL | 0.12 | 0.563 |  | 
11 | AITLPMCPLLLRY | 0.152 | 0.633 |  | 
12 | AITLPMCPLWLR | 0.239 | 0.695 |  | 
13 | AITLPMCPNLLR | 0.645 | 0.672 |  | 
14 | AITLPMCPTLLR | 0.581 | 0.678 |  | 
15 | AITLPMNPLLLR | 0.392 | 0.685 |  | 
16 | AITLPMWPLLLR | 0.124 | 0.673 |  | 
17 | AITLTMCPLLLR | 0.386 | 0.667 |  | 
18 | AITLYMCPLLLR | 0.309 | 0.628 |  | 
19 | AITPPMCPLLLR | 0.458 | 0.686 |  | 
20 | AKTLPMCPLLLR | 0.352 | 0.672 |  | 
21 | ALTLPMCPLLLR | 0.21 | 0.646 |  | 
22 | AVTRLDAIYFRI | 0.317 | 0.696 |  | 
23 | AWTLPMCPLLLR | 0.111 | 0.665 |  | 
24 | CLISLPILLFFR | 0.0542 | 0.552 |  | 
25 | CLRSLPILLFFR | 0.0732 | 0.619 |  | 
26 | CLSSLPILLFFR | 0.0943 | 0.641 |  | 
27 | CLVNLPILLFFR | 0.0622 | 0.597 |  | 

Row | Sequence | protein stability index (Saccharomyces cerevisiae [1]) | protein stability index (Saccharomyces cerevisiae [2]) | protein stability index (Saccharomyces cerevisiae [3]) | other results
28 | CLVSLGILLFFR | 0.276 | 0.436 |  | 
29 | CLVSLPDLLFFR | 0.188 | 0.709 |  | 
30 | CLVSLPGLLFFR | 0.126 | 0.656 |  | 
31 | CLVSLPHLLFFR | 0.0749 | 0.67 |  | 
32 | CLVSLPILKFFR | 0.63 | 0.666 |  | 
33 | CLVSLPILLFFA | 0.256 | 0.346 |  | 
34 | CLVSLPILLFFRD | 0.103 | 0.594 |  | 
35 | CLVSLPILLFFRH | 0.0656 | 0.577 |  | 
36 | CLVSLPILLFFRP | 0.068 | 0.563 |  | 
37 | CLVSLPILLFFRS | 0.0709 | 0.533 |  | 
38 | RLIQPLPVQFLN | 0.0747 and 0.0662 |  | 0.672 and 0.598 | protein stability index (Saccharomyces cerevisiae [4]; genetic background: cdc34-1, temperature: 37 C): 0.2752 ± 0.002; protein stability index (Saccharomyces cerevisiae [4]; genetic background: cdc53-1, temperature: 37 C): 0.644 ± 0.089; protein stability index (Saccharomyces cerevisiae [4]; genetic background: das1 deletion, temperature: 30 C): 0.616 ± 0.026; protein stability index (Saccharomyces cerevisiae [4]; genetic background: das1 deletion, temperature: 37 C): 0.732 ± 0.066; protein stability index (Saccharomyces cerevisiae [4]; genetic background: doa10 deletion, temperature: 30 C): 0.0708 ± 0.018; protein stability index (Saccharomyces cerevisiae [4]; genetic background: wild type, temperature: 30 C): 0.0754 ± 0.0037; protein stability index (Saccharomyces cerevisiae [4]; genetic background: wild type, temperature: 37 C): 0.0963 ± 0.012; protein stability index (Saccharomyces cerevisiae [5]): 0.0935 ± 0.0062
39 | SVVYLSCVACIN | 0.0146 |  | 0.0314 | 
40 | TKHKKGQKQKIN | 0.118 |  | 0.639 | 
41 | TLIQPLPVQFLN | 0.102 |  | 0.576 | 
42 | VEGAVGGWRLVG | 0.159 |  | 0.685 | 
43 | VFGAVGGWRLVG | 0.134 |  | 0.698 | 
44 | VHGAVGGWRLVG | 0.136 |  | 0.692 | 
45 | VMGAVGGWRLVG | 0.118 |  | 0.681 | 
46 | VRGAAGGWRLVG | 0.164 |  | 0.689 | 
47 | VRGADGGWRLVG | 0.438 |  | 0.685 | 
48 | VRGAPGGWRLVG | 0.165 |  | 0.684 | 
49 | VRGAVGGCRLVG | 0.633 |  | 0.692 | 
50 | VRGAVGGERLVG | 0.65 |  | 0.698 | 
51 | VRGAVGGGRLVG | 0.564 |  | 0.682 | 
52 | VRGAVGGWFLVG | 0.626 |  | 0.673 | 
53 | VRGAVGGWNLVG | 0.198 |  | 0.679 | 
54 | VRGAVGGWRGVG | 0.602 |  | 0.673 | 

Row | Sequence | protein stability index (Saccharomyces cerevisiae [1]) | protein stability index (Saccharomyces cerevisiae [2]) | protein stability index (Saccharomyces cerevisiae [3]) | other results
55 | VRGAVGGWRLLG | 0.164 |  | 0.658 | 
56 | VRGAVGGWRLNG | 0.234 |  | 0.679 | 
57 | VRGAVGGWRLQG | 0.153 |  | 0.649 | 
58 | VRGAVGGWRLRG | 0.636 |  | 0.679 | 
59 | VRGAVGGWRLVE | 0.726 |  | 0.663 | 
60 | VRGAVGGWRLVGH | 0.668 |  | 0.671 | 
61 | VRGAVGGWRLVGL | 0.665 |  | 0.675 | 
62 | VRGAVGGWRLVI | 0.215 |  | 0.685 | 
63 | VRGAVGGWRLVM | 0.321 |  | 0.661 | 
64 | VRGAVGGWRLVP | 0.436 |  | 0.686 | 
65 | VRGAVGGWRLVT | 0.184 |  | 0.675 | 
66 | VRGAVGGWRLVY | 0.654 |  | 0.636 | 
67 | VRGAVGGWRVVG | 0.259 |  | 0.654 | 
68 | VRGAVGKWRLVG | 0.172 |  | 0.68 | 
69 | VRGAVGMWRLVG | 0.169 |  | 0.691 | 
70 | VRGAVQGWRLVG | 0.157 |  | 0.682 | 
71 | VRGDVGGWRLVG | 0.108 |  | 0.679 | 
72 | VRGKVGGWRLVG | 0.129 |  | 0.67 | 
73 | VRGLVGGWRLVG | 0.154 |  | 0.678 | 
74 | VRKAVGGWRLVG | 0.18 |  | 0.665 | 
75 | VRMAVGGWRLVG | 0.132 |  | 0.672 | 
76 | VRSAVGGWRLVG | 0.141 |  | 0.685 | 
77 | WLIQPLPVQFLN | 0.0761 |  | 0.643 | 
78 | WRGAVGGWRLVG | 0.174 |  | 0.655 | 
79 | YSLAASFWRVVG | 0.128 |  | 0.67 | 
80 | YTSCGYKFRTNN | 0.212 |  | 0.691 | 
